First the molecules themselves.
B1: N1#9 (antibody, human IgG2, V domains shown)
VH: EVQLVESGGGLVQPGRSLRLSCAASGFTFDDYAMHWVRLAPGKGLEWVSGISWNSGSIGYADSVRGRFTISRDNAKNSLYLQMNSLRAEDTALYYCAKDMGWSLLKTNYYGMDVWGQGTTVTVSS
VL: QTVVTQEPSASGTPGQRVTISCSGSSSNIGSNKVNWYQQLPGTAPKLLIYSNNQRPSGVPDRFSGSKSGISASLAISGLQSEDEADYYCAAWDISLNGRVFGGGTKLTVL
notes: also called N1 variant N1#9
B2: N1#2 (antibody, human IgG2, V domains shown)
VH: EVQLVESGGGLVQPGRSLRLSCAASGLTFDDYAMHWVRQAPGKGLEWVSGISWNSNSIGYADPVRGRFTISRDNAKNSLYLQMNSLRAEDTALYYCAKDMGWELLKTSYYGMDVWGQGTTVTVSS
VL: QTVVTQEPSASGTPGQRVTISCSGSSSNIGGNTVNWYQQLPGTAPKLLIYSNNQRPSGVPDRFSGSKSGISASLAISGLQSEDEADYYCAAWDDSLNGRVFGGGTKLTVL
notes: also called N1 variant N1#2
B3: N4#6 (antibody, human IgG2, V domains shown)
VH: QVQLVQSGAEVKKSGSSVKVSCKASGGTFSSYAISWVRQAPGQGLEWMGGIIPIFGTTNYAQKFQGRVTITADESTSIAYMELSSLRSEDTAVYYCASDGAVAAYDAFLIWGQGTMVTVSS
VL: QAVLTQPSSVSGAPGQRVTISCTGTSSNIGAGYDIHWYQQLPGTAPKLLMYRFTRRPSGVPDRFSGSKSGTSASLTITGLQVEDEADYYCQSYDSGQRGWVFGGGTKLTVL
notes: also called N4 variant N4#6
B4: N4#4-3 (antibody, human IgG2, V domains shown)
VH: QVQLVQSGAEVKKSGSSVKVSCKASGGTFASYAISWVRQAPGQGLEWMGGIIPIFGTVNYAQKFQGRVTITADESTSIAYMELSSLRSEDTAVYYCASDGAVAAYDAFDIWGQGTMVTVSS
VL: QAVLTQPSSVSGAPGQRVTISCTGTSSNIGQGYDIHWYQQLPGTAPKLLMYRFTRRPSGVPDRFSGSKSGTSASLTITGLQVEDEADYYCQSYDSGLRGWAFGGGTKLTVL
notes: also called N4 variant N4#4-3
B5: N4#6-5 (antibody, human IgG2, V domains shown)
VH: QVQLVQSGAEVKKSGSSVKVSCKASGGTFSSYAISWVRQAPGQGLEWMGRIIPIFGTTNYAQKFQGRVTITADESTSIAYMELSSLRSEDTAMYYCASDGAVAAYDAFLIWGQGTMVTVSS
VL: QAVLTQPSSVSGAPGQRVTISCTGTSSNIGTGYDIHWYQQLPGTAPKLLMYRFTRRPSGVPDRFSGSKSGTSASLTITGLQVEDEADYYCQSYDSGQRGWVFGGGTKLTVL
notes: also called N4 variant N4#6-5
B6: N4#6-4 (antibody, human IgG2, V domains shown)
VH: QVQLVQSGAEVKKSGSSVKVSCKASGGTFSSYAISWVRQAPGQGLEWMGMIIPIFGTANYAQKFQGRVTITADESTSIAYMELSSLRSEDTAVYYCASDGAVAAYDAFLIWGQGTMVTVSS
VL: QAVLTQPSSVSGAPGQRVTISCTGTSSNIGAGFDIHWYQQLPGTAPKLLMYRFSRRPSGVPDRFSGSKSGTSASLTITGLQVEDEADYYCQSYDSGQRGWVFGGGTKLTVL
notes: also called N4 variant N4#6-4
B7: N4#6-3 (antibody, human IgG2, V domains shown)
VH: QVQLVQSGAEVKKSGSSVKVSCKASGGTFSSYAISWVRQAPGQGLEWMGGIIPIFGTANYAQKFQGRVTITADESTSIAYMELSSLRSEDTAVYYCASDGAVAAYDAFLIWGQGTMVTVSS
VL: QAVLTQPSSVSGAPGQRVTISCTGTSSNIGLGYDIHWYQHLPGTAPKLLMYRFDRRPSGVPDRFSGSKSGTSASLTITGLQVEDEADYYCQSYDSGQRGWVFGGGTKLTVL
notes: also called N4 variant N4#6-3
B8: N4#6-2 (antibody, human IgG2, V domains shown)
VH: QVQLVQSGAEVKKSGSSVKVSCKASGGTFSSYAISWVRQAPGQGLEWMGRIIPIFGTTNYAQKFQGRVTITADESTSIAYMELSSLRSEDTAVYYCASDGAVAAYDAFLIWGQGTMVTVSS
VL: QAVLTQPSSVSGAPGQRVTISCTGTSSNIGHGYDIHWYQHLPGTAPKLLMYRFVRRPSGVPDRFSGSKSGTSASLTITGLQVEDEADYYCQSYDSGQRGWVFGGGTKLTVL
notes: also called N4 variant N4#6-2
B9: N4#5 (antibody, human IgG2, V domains shown)
VH: QVQLVQSGAEVKKSGSSVKVSCKASGGTFSSYAIAWVRQAPGQGLEWMGGIIPIFGTVNYAQKFQGRVTITADESTSIAYMELSSLRSEDTAVYYCASDGAVAAYDAFSIWGQGTMVTVSS
VL: QAVLTQPSSVSGAPGQRVTISCTGTSSNIGAGYDIHWYQQLPGTAPKLLMYRFTRRPSGVPDRFSGSKSGTSASLTITGLQVEDEADYYCQSYDSGLRGLVFGGGTKLTVL
notes: also called N4 variant N4#5
B10: N1-tmtIgG1 (antibody)
heavy: EVQLVESGGGLVQPGRSLRLSCAASGFTFDDYAMHWVRQAPGKGLEWVSGISWNSGSIGYADSVRGRFTISRDNAKNSLYLQMNSLRAEDTALYYCAKDMGWELLKTYYYGMDVWGQGTTVTVSSASTKGPSVFPLAPSSSTSGGTAALGCLVKDYFPEPVTVSWNSGALTSGVHTFPAVLQSSGLYSLSSVVTVPSSSLGTQTYICNVNHKPSNTKVDKRVEPKSCDKTHTCPPCPAPEFEGGPSVFLFPPKPKDTLMISRTPEVTCVVVDVSHEDPEVKFNWYVDGVEVHNAKTKPREEQYNSTYRVVSVLTVLHQDWLNGKEYKCKVSNKALPASIEKTISKAKGQPREPQVYTLPPSREEMTKNQVSLTCLVKGFYPSDIAVEWESNGQPENNYKTTPPVLDSDGSFFLYSKLTVDKSRWQQGNVFSCSVMHEALHNHYTQKSLSLSPGK
light: not shown
notes: Heavy chain assembled from the VH entry and the constant region entry named tmtIgG1; also called lead N1; N1 clone, tmtIgG1 isotype
B11: N1-wtIgG2 (antibody)
heavy: EVQLVESGGGLVQPGRSLRLSCAASGFTFDDYAMHWVRQAPGKGLEWVSGISWNSGSIGYADSVRGRFTISRDNAKNSLYLQMNSLRAEDTALYYCAKDMGWELLKTYYYGMDVWGQGTTVTVSSASTKGPSVFPLAPCSRSTSESTAALGCLVKDYFPEPVTVSWNSGALTSGVHTFPAVLQSSGLYSLSSVVTVPSSNFGTQTYTCNVDHKPSNTKVDKTVERKCCVECPPCPAPPVAGPSVFLFPPKPKDTLMISRTPEVTCVVVDVSHEDPEVQFNWYVDGVEVHNAKTKPREEQFNSTFRVVSVLTVVHQDWLNGKEYKCKVSNKGLPAPIEKTISKTKGQPREPQVYTLPPSREEMTKNQVSLTCLVKGFYPSDIAVEWESNGQPENNYKTTPPMLDSDGSFFLYSKLTVDKSRWQQGNVFSCSVMHEALHNHYTQKSLSLSPGK
light: not shown
notes: Heavy chain assembled from VH and the named constant region entry; also called N1 clone, wtIgG2 isotype
B12: N1-mtIgG2 (antibody)
heavy: EVQLVESGGGLVQPGRSLRLSCAASGFTFDDYAMHWVRQAPGKGLEWVSGISWNSGSIGYADSVRGRFTISRDNAKNSLYLQMNSLRAEDTALYYCAKDMGWELLKTYYYGMDVWGQGTTVTVSSASTKGPSVFPLAPCSRSTSESTAALGCLVKDYFPEPVTVSWNSGALTSGVHTFPAVLQSSGLYSLSSVVTVPSSNFGTQTYTCNVDHKPSNTKVDKTVERKSCVECPPCPAPPVAGPSVFLFPPKPKDTLMISRTPEVTCVVVDVSHEDPEVQFNWYVDGVEVHNAKTKPREEQFNSTFRVVSVLTVVHQDWLNGKEYKCKVSNKGLPAPIEKTISKTKGQPREPQVYTLPPSREEMTKNQVSLTCLVKGFYPSDIAVEWESNGQPENNYKTTPPMLDSDGSFFLYSKLTVDKSRWQQGNVFSCSVMHEALHNHYTQKSLSLSPGK
light: not shown
notes: Heavy chain assembled from VH and the named constant region entry; also called N1 clone, mtIgG2 isotype; C219S mutant IgG2

The source of these data is patent publication US20220162334A1 (SHANGHAI HENLIUS BIOTECH, published 2022).

One test concerns the target T1, human CD73 on CD73-expressing human tumor cells (MDA-MB-231, NCI-H292) (human, UniProt P21589 27-549).
T1 construct: whole, on cells; The cell line of each result is named under assay or readout; also called cell surface CD73; surface CD73
T1 sequence (looked up): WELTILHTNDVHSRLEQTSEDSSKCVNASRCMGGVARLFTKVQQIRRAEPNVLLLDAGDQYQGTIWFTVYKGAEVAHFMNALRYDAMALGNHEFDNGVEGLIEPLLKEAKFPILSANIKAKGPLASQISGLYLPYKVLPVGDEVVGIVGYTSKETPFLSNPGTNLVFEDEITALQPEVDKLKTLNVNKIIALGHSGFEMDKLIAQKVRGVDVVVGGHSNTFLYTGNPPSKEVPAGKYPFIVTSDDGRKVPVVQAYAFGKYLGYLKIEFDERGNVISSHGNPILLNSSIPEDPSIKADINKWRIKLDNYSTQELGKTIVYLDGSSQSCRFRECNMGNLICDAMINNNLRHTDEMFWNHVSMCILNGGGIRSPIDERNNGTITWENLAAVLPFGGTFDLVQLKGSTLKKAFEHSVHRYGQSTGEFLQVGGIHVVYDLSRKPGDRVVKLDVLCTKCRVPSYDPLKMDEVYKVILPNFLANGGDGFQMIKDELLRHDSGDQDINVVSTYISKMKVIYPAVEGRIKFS
In words: flow cytometry on MDA-MB-231 and NCI-H292 cells (FIGS. 11A, 11B). As to the method: Whole cell binding ability of anti-CD73 antibodies were tested by incubating the MDA-MB-231 or NCI-H292 cells with the serial-diluted antibodies in FACS buffer (PBS with 2% FBS) at 4° C. for 30 minutes. Cells were washed with FACS buffer and the binding was detected with FITC-labeled goat anti-human IgG (H+L) antibodies (or PE-labeled goat anti-human IgG Fcγ) at 4° C. for another 30 minutes. The binding of antibodies to cell surface was measured by the mean fluorescent intensity (MFI) of staining. Flow cytometric analyses were performed using the Cytomics FC500 or CytoFLEX flow cytometry (Beckman Coulter Inc.). FIGS. 2B and 2C show selected anti-CD73 antibodies binding to CD73-expressing human tumor cells MDA-MB-231 (human breast adenocarcinoma) cells (FIG. 2B), and NCI-H292 (human mucoepidermoid pulmonary carcinoma) cells (FIG. 2C).
FIGS. 11A-11B also show CD73 binding of N1 and N4 variants. Selected variants were tested the binding to CD73-expressing MDA-MB-231 (FIG. 11A) and NCI-H292 (FIG. 11B) cells by flow cytometry. HLX01 (anti-CD20) was used as the negative control. […] N4 variants have better CD73 binding ability than N1 variants in these two cell lines. The rank of the whole cell binding ability is: N4#5, N4#6-4, N4#6-5>N4#6-2>N4#4-3, N4#6, N4#6-3, N1#9>N1#2.
With B1, the binding result was “binds”.
The same measure, in the same setting: with B2 the entry was “binds”; with B3, “binds”; with B4, “binds”.
The same measure, in the same setting: with B5 the entry was “binds”; with B6, “binds”; with B7, “binds”.
Regarding B8, the binding result is given as “binds”.
On the same count and under the same terms, then B9, with “binds”.

The next test deals with T1, human CD73 on CD73-expressing human …. Briefly: flow cytometry on MDA-MB-231 cells, biotin-labeled antibody, streptavidin-FITC (FIG. 5A). How it is done:
The binding of anti-CD73 antibodies to cell surface CD73 were tested by incubating the MDA-MB-231 cells with the serially diluted biotin-labeled anti-CD73 antibodies in FACS buffer (PBS with 2% FBS) at 4° C. for 30 minutes. The cells were washed with FACS buffer and the binding was detected with streptavidin-FITC at 4° C. for 30 minutes. Flow cytometric analyses were performed using the Cytomics FC500 (Beckman Coulter Inc.).
The variable sequences of N1, N2 and N4 were cloned into human wild-type or C219S mutant IgG2 Fc backbone. Different IgG isotypes of N1 (FIG. 5A), N2 (FIG. 5B), N4 (FIG. 5C) were tested the binding to CD73-expressing human MDA-MB-231 cells by flow cytometry. Anti-CD73 ref-1 antibody and HLX01 (anti-CD20) were used as the positive and negative control respectively.
(A flow cytometer gives signals particle by particle.)
For B10, the binding result was “binds”.
On the same count and under the same terms, then B11, with “binds”.
Take B12: the binding result is “binds”.
